Laboratory results taken from patent EP4089107A1 (Cytoki Pharma ApS, dated 2022).
Where a chain is given by its changes, count along the chain named. Blank lines part the entries; values can stand above or below the binder they belong to.

Key:
[1] = biological target: T1, human IL-22 receptor (human IL-22Ra and human IL-10Rb) expressed on BHK reporter cells (human, UniProt Q8N6P7 16-574; Q08334 20-325); assay: cell-based or functional assay
T1 sequence (looked up) 1: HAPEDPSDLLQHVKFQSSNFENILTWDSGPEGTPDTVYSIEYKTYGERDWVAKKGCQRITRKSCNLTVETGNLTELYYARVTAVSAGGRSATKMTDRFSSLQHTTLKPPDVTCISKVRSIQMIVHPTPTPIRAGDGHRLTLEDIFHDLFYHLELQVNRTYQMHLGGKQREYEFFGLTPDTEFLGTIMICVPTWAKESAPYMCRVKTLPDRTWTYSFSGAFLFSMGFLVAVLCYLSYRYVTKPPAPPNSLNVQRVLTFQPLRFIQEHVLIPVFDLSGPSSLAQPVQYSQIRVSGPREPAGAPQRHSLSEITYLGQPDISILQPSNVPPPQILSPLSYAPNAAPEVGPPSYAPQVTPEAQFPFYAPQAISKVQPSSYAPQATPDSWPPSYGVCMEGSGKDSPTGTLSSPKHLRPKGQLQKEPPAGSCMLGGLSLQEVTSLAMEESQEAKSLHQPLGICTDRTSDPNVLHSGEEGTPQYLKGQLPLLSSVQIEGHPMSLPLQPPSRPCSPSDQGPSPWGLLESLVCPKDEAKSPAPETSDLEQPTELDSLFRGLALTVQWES
T1 sequence (looked up) 2: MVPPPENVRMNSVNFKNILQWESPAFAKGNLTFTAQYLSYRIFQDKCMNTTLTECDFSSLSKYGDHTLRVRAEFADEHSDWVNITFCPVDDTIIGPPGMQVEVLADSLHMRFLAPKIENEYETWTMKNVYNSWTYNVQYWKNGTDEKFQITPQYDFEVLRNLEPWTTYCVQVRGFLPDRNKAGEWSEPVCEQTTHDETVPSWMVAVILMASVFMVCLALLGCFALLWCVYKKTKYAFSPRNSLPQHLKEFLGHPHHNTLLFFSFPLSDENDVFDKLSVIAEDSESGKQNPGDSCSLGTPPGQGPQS

[2] = biological target: T1, human IL-22 receptor (human IL-22Ra and …); assay: cell-based or functional assay; remark: listed apart in the source

EC50 in BHK cell reporter gene assay (luciferase with STAT3-induced promoter) [1]: 0.07 nM
B1: native mature human IL-22 (ligand)
chain: APISSHCRLDKSNFQQPYITNRTFMLAKEASLADNNTDVRLIGEKLFHGVSMSERCYLMKQVLNFTLEEVLFPQSDRFQPYMQEVVPFLARLSNRLSTCHIEGDDLHIQRNVQKLKDTVKKLGESGEIKAIGELDLLFMSLRNACI

fold reduction in potency compared to hIL-22, BHK cell assay with albumin present [2]: 5 fold
EC50 in BHK cell reporter gene assay (luciferase with STAT3-induced promoter) [1]: 0.36 nM
B2: Derivative 2 (ligand)
chain: B1 chain with N35Q, N64Q, R95C
modifications: C18 diacid covalently attached via linker γGlu-OEG-OEG-C2DA-Ac at residue 95C

fold reduction in potency compared to hIL-22, BHK cell assay with albumin present [2]: 3 fold
EC50 in BHK cell reporter gene assay (luciferase with STAT3-induced promoter) [1]: 0.23 nM
B3: Derivative 1 (ligand)
chain: B1 chain with N35Q, N64Q, L106C
modifications: C18 diacid covalently attached via linker γGlu-OEG-OEG-C2DA-Ac at residue 106C
